To fix the notation:
B1: fibromodulin (natural protein)
chain: QYEDDPHWWFHYLRSQQSTYYDPYDPYPYETYEPYPYGVDEGPAYTYGSPSPPDPRDCPQECDCPPNFPTAMYCDNRNLKYLPFVPSRMKYVYFQNNQITSIQEGVFDNATGLLWIALHGNQITSDKVGRKVFSKLRHLERLYLDHNNLTRMPGPLPRSLRELHLDHNQISRVPNNALEGLENLTALYLQHNEIQEVGSSMRGLRSLILLDLSYNHLRKVPDGLPSALEQLYMEHNNVYTVPDSYFRGAPKLLYVRLSHNSLTNNGLASNTFNSSSLLELDLSYNQLQKIPPVNTNLENLYLQGNRINEFSISSFCTVVDVVNFSKLQVLRLDGNEIKRSAMPADAPLCLRLASLIEI
modifications: biotinylated (EZ-Link Sulfo-NHS-LC-Biotinylation kit); glycosylated
B2: osteoadherin (natural protein)
chain: QYETYQWDEDYDQEPDDDYQTGFPFRQNVDYGVPFHQYTLGCVSECFCPTNFPSSMYCDNRKLKTIPNIPMHIQQLYLQFNEIEAVTANSFINATHLKEINLSHNKIKSQKIDYGVFAKLPNLLQLHLEHNNLEEFPFPLPKSLERLLLGYNEISKLQTNAMDGLVNLTMLDLCYNYLHDSLLKDKIFAKMEKLMQLNLCSNRLESMPPGLPSSLMYLSLENNSISSIPEKYFDKLPKLHTLRMSHNKLQDIPYNIFNLPNIVELSVGHNKLKQAFYIPRNLEHLYLQNNEIEKMNLTVMCPSIDPLHYHHLTYIRVDQNKLKEPISSYIFFCFPHIHTIYYGEQRSTNGQTIQLKTQVFRRFPDDDDESEDHDDPDNAHESPEQEGAEGHFDLHYYENQE
modifications: biotinylated (EZ-Link Sulfo-NHS-LC-Biotinylation kit); glycosylated
B3: biglycan (natural protein)
chain: DEEASGADTSGVLDPDSVTPTYSAMCPFGCHCHLRVVQCSDLGLKSVPKEISPDTTLLDLQNNDISELRKDDFKGLQHLYALVLVNNKISKIHEKAFSPLRKLQKLYISKNHLVEIPPNLPSSLVELRIHDNRIRKVPKGVFSGLRNMNCIEMGGNPLENSGFEPGAFDGLKLNYLRISEAKLTGIPKDLPETLNELHLDHNKIQAIELEDLLRYSKLYRLGLGHNQIRMIENGSLSFLPTLRELHLDNNKLARVPSGLPDLKLLQVVYLHSNNITKVGVNDFCPMGFGVKRAYYNGISLFNNPVPYWEVQPATFRCVTDRLAIQFGNYKK
modifications: biotinylated (EZ-Link Sulfo-NHS-LC-Biotinylation kit); glycosylated

For the test, the target named is recombinant UspA2 (ubiquitous surface protein A2), cloned from M. catarrhalis strain RH4 (Moraxella catarrhalis strain RH4). Briefly: ELISA. (An ELISA detects its analyte on a solid surface through an enzyme-linked reagent.)
For orientation: Kd means the equilibrium constant for the complex coming apart. For “decorin (from UniProt P07585 31-359) (natural protein)”, the Kd worked out at 293 nM.
As for B1, the Kd is 202 nM.
Take B2: the Kd was determined as 231 nM.
As to B3, the Kd was found to be 89 nM.

Source of the values: PMC6200642.
